Assay: yeast display, Sf9 membrane polyspecificity reagent, FACS + sequencing; frameworks hold sequencing errors
Summary of the method: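 Nanobodies from a synthetic yeast display library (Saccharomyces cerevisiae BJ5465), induced 36–48 hours with galactose, were stained 1 hour at 4 °C with 10% biotinylated, detergent-solubilized Sf9 membrane reagent, enriched on streptavidin microbeads, then FACS-sorted. Anti-HA (expression) and streptavidin (reagent binding) fluorescence set low and high (top ~1%) gates. Polyreactivity labels come from the gate of origin. Genes were colony-PCR amplified, MiSeq 2 × 250 sequenced and filtered by CDR length.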

| Sequence | polyreactivity (PSR sort gate) |
| --- | --- |
| QVQLVESGGGLVQAGGSLRLSCAASGSTFSAYAMGWYRQAPGKERELVAAISKRGGSTYYADSVKGRFTISRDNAKNTVYLQMNSLKPEDTAVYYCNKESLYREFDYWGQGTQVTVSS | low polyreactivity |
| QVQLVESGGGLVQAGGSLRLSCAASGSTFSAYGMGWYRQAPGKEMELVASISWNGGSTYYADSVQGRFTISGDNAKNTVYLQMNSLKPEDTAVYYCNTELVGHPDWLSWRYYYWGQGTQVTVSS | low polyreactivity |
| QVQLVESGGGLVQAGGSLRLSCAASGSTFSAYTMGWDRQAPGKERELVAAIRFDGGRTYYADSVKGRFTISRDNAKNTVYLQMNSLKPEDTAVYYCPAWQSYSYDYWGQGTQLTVSS | high polyreactivity |
| QVQLVESGGGLVQAGGSLRLSCAASGSTFSAYTMGWYRQAPGKERELVAAISYRGGSTYYADSVKGRFTISRDNAKNTVYLQMNSRKPEDTAVYYCAAERKHYGLYDYWGQGTQVTVSS | low polyreactivity |
| QVQLVESGGGLVQAGGSLRLSCAASGSTFSCNSMGWYRQAPGKERELVAAITSGGSTNYADSVKGRFTISRDNAKNTVFLQMNSLKPEDTAVYYCAKRYGYRRYYTASDYWGQGTQVTVSS | low polyreactivity |
| QVQLVESGGGLVQAGGSLRLSCAASGSTFSDNAMGWYRQAPGKERELVAAISSGGSTNYADSVKGRFTISRDNAKNTVYLQMNSLKPEDTAVYYCAREYYSRRYDYWGQGTQVTVSS | low polyreactivity |
| QVQLVESGGGLVQAGGSLRLSCAASGSTFSDYAMGWYRPAPGKERELVAAISSDGSTYYADSVKGRFTISRDNANNTVYLQMNILKPEDTAVYYCAKDVILVWPYATGRDYCGQGTQVTVSS | low polyreactivity |
| QVQLVESGGGLVQAGGSLRLSCAASGSTFSDYAMGWYRQAPGKERELVAAISSSGGRTYYADSVKGRFTISRDNAKNTVYLQMNSLKPEDTAVYYCNAYYIYILYGGQTYTGDYWGQGTQVTVSS | high polyreactivity |
| QVQLVESGGGLVQAGGSLRLSCAASGSTFSDYAMGWYRQEPGKERELVAAISSDGSTYYADSVKGRYTISRDNAKNTVYLQMNSLKPEDTAVYYCAKDVILVWPYATGRDFWGQGTQVTVSS | low polyreactivity |
| QVQLVESGGGLVQAGGSLRLSCAASGSTFSFNAKGWYRQAPGKARELVAAITGGDGTNYADSVKGRFTISRDNAKNTVYLQMNSLKPEDTAVNYCAADQWGSTEDYWFTYGYWGQGTQVTVSS | low polyreactivity |
| QVQLVESGGGLVQAGGSLRLSCAASGSTFSFYAMGWYRQAPGKERELVAAIDSGGRTKYADSVKGRFTISRDNAKNTVYLLMNSLKPEDTAVYYCAAVFRGWWLYDYWGQGTQVTVSS | low polyreactivity |
| QVQLVESGGGLVQAGGSLRLSCAASGSTFSFYAMGWYRQAPGKERELVAAITWTTGSTYADSVKGRFTISRDNAKNTVYLQMNSLKPEDTAVYYCAAKKFRRSRDSYYWGPGTQVTVSS | high polyreactivity |
| QVQLVESGGGLVQAGGSLRLSCAASGSTFSFYAMGWYRQAPGKERELVAVFTRGGSTYYADSVKGRFTISRDNAKNTVYLQMNSLKPEDTAVYYCAARSTSNGQRSLHYGYWGQGTQVTVSS | low polyreactivity |
| QVQLVESGGGLVQAGGSLRLSCAASGSTFSFYAMGWYRQAPGQERELVAAIRAGTRTYYADSVKGRFTISRDNAKNTVYLQMNSLKPEDTAVYYCAATRRRYPYYYWGQGTQVTVSS | high polyreactivity |
| QVQLVESGGGLVQAGGSLRLSCAASGSTFSGKAMGWYRQAPGKERELVAAITSSGGSTYYADSVKGRFTISRDNAKNTVYLQMNSLKPEDTAVYYCAAKSRRTRRSYYWGQGTQVTVSS | high polyreactivity |
| QVQLVESGGGLVQAGGSLRLSCAASGSTFSGNAMGWYRQAPGKEMEMVAAISGRGGSTYYADSVKGRFTISRDNAKNTVFLQMKSLKPEDTAVYYCAKRRNTRGAYGYWGQGTQVTVSS | high polyreactivity |
| QVQLVESGGGLVQAGGSLRLSCAASGSTFSGNAMGWYRQAPGKEREFVAAIFSDGSTYYADSVKGRFTISRDNAKNTVYLQMNSLKPEDTAVYYCAAAWYEPATQTGYFEFDYWGQGTQVTVSS | low polyreactivity |
| QVQLVESGGGLVQAGGSLRLSCAASGSTFSGNAMGWYRQAPGKERELVAAINSVRTYYADSVKGRFTISRDNAKNTVYLQMNSLKPEDTAVYYCAARQGYSSRYPAKGYYWGQGTQVTVSS | high polyreactivity |
| QVQLVESGGGLVQAGGSLRLSCAASGSTFSGNAMGWYRQAPGKERELVAAISQSGGSTYYADSVKGRFTISRDNAKNTVYLQMNSLKPEDTAVYYCNRLYYFLARRMDSWGQGTQVTVSS | high polyreactivity |
| QVQLVESGGGLVQAGGSLRLSCAASGSTFSGYAMGWYRQAPGKARELVAAISWRGVRTYYADSVKGRFTISRDNAKNTVYLQMNSLKPEDTAVSYCAAVRYITKEFSWGQGTQVTVSW | high polyreactivity |
| QVQLVESGGGLVQAGGSLRLSCAASGSTFSGYAMGWYRQAPGKERELVAAISTDDTYYADSVKGRFTISRDNPKNTVYLQKNSLKPEDTAVYYCAADYLGYYGLEEHWGQGTQVTVSS | high polyreactivity |
| QVQLVESGGGLVQAGGSLRLSCAASGSTFSGYAMGWYRQAPGKERELVAAISWSGGRTYYADSVKGRFTISRDNAKNTVYLQMNSLKPEDTAVYYCAAVRKSAYEYWGQGTQVTVSS | high polyreactivity |

| Sequence | polyreactivity (PSR sort gate) |
| --- | --- |
| QVQLVESGGGLVQAGGSLRLSCAASGSTFSGYAMRWYRPAPGKERELVAAISWSGGSTYYADSVKGRFTISRDNAKNTVYLQMNSLKPEDTSVNYCNALESTIRGYPYDYWGQGTQVTVSS | low polyreactivity |
| QVQLVESGGGLVQAGGSLRLSCAASGSTFSHNAMGWYRQAPGKERELVAAISTSGSRTYYADSVKGRFTISRDNAKNSVYLQMNSLKPEDTAVYYCNTVPIYYSGYDYWGQGTQVTVSS | high polyreactivity |
| QVQLVESGGGLVQAGGSLRLSCAASGSTFSHYTMGWSRQAPGKERELVAAINYGGASTYYADSVKGRFTISRDNAKNTVFLHMNSLKPEDTSVYYCAAANRPSEQDNYWGQGTQVTVSS | low polyreactivity |
| QVQLVESGGGLVQAGGSLRLSCAASGSTFSKNAMGWYREAPGKERELVAAISGSGGSTYYADSVKGRFTISRDNAKKTVYLQMNSLKPEESAVYYCAARYSGRRYGYWGQGTQVTVSS | high polyreactivity |
| QVQLVESGGGLVQAGGSLRLSCAASGSTFSKNAMGWYRQAPGKERELVASISTDGDSTYYADSVKGRFTISRDNAKNTVYFQMNSLKPEDTAVYYCNVVYYGRTWVPYVWEYDYWGQGTQVTVSS | low polyreactivity |
| QVQLVESGGGLVQAGGSLRLSCAASGSTFSKYAMGWYRQAPGKERELVATISSTGSTNYADSVKGRFTISRDNEKNTVYLQMNSLKPEDTAVYDCNAGRRGRPYYKYYYWGQGTQVTVSS | high polyreactivity |
| QVQLVESGGGLVQAGGSLRLSCAASGSTFSKYAMGWYRQAPWKESELVASITWSGGSTYYADSVKGRFTISRDNAKNTVYLQMNSLIPEDTAVYYCNVRTIQYNVGRWWEYDYWGQVTQVTVSS | low polyreactivity |
| QVQLVESGGGLVQAGGSLRLSCAASGSTFSLNDMGWYRQAPGKERELVAVISSSTGITYYADSVKGRFTISRDNAKNTVYLQMNSLKPEDTAVYYCNADKWEVYYTRMYYWGQGTQVTVSS | low polyreactivity |
| QVQLVESGGGLVQAGGSLRLSCAASGSTFSLNDRGWYRQAPGKERELVAVISSSTGITYYADSVKGRFTISRDNAKYTVYLQMNSLKPEDTAVYYCNADKWEVYYTRMYYWGQGTQVTVSS | low polyreactivity |
| QVQLVESGGGLVQAGGSLRLSCAASGSTFSLYAMGWYRQAPGKERELVAAISKRGDDTYYADSVKGRFTISRDNAKNTVYLQMNSLKPEDTAVYYCAAEYAAYEYRYWWYDYWGQGTQVTVSS | high polyreactivity |
| QVQLVESGGGLVQAGGSLRLSCAASGSTFSLYAMGWYRQAPGKERELVADINSGGGTYYADSVKGRFTISRDNAKNTVYLQMNSLKPEDTAVYYCTAASSWSYFWYDYWGQGTQVTVSS | high polyreactivity |
| QVQLVESGGGLVQAGGSLRLSCAASGSTFSNNARGWYRQAPGKERELVAAISRSGGSTYYADSVKGRFTISRDNAKNTVYLQMNSLKPEDTAVYYCAAYAPYYRTMDYWGQGTQVTVSS | high polyreactivity |
| QVQLVESGGGLVQAGGSLRLSCAASGSTFSNYAMGWYRQAPGKERELVASISNGGSTNYADSVKGRFTISRDNAKNNVYLQMNSLKPEDTAVYYCNAESKAKYDYWGQGTQVTVSS | low polyreactivity |
| QVQLVESGGGLVQAGGSLRLSCAASGSTFSPNAMGWYRQAPGKERELVAAITYRGANTYYADSVKGRFTISRDNEKNTVYLQMNSLKPEDTAVYYCAAEYAYHHVGFGYWGQGTQVTVSS | low polyreactivity |
| QVQLVESGGGLVQAGGSLRLSCAASGSTFSPYAMGWYRQAPGKERELVANITISGGSTYYADSVKGRFTISRDNAKNTVYLQMNSLKPEDTAVYYCNADSLIRWLFTVVIFDYWGQGTEVTVSS | low polyreactivity |
| QVQLVESGGGLVQAGGSLRLSCAASGSTFSQNAMGWYRQAPGKERELVAAITSGGITYYADSVKGRFTISRDNAKNTVYLQMNSLKPEDTAVYYCAADFWPSGRGVAFDYWGQGTQVTVSS | low polyreactivity |
| QVQLVESGGGLVQAGGSLRLSCAASGSTFSQYAMGWYRQAPWKERELVAAITSTGGSTYYADSVKGRFTISRDNAKNTVYLQMNSLKPEDTAVYYCYPYIRDPKYNYWGQATQVTVSS | low polyreactivity |
| QVQLVESGGGLVQAGGSLRLSCAASGSTFSQYVMGWYRQAPAKERELVAAISSGGSTYYADSVKGRFTISRDNAKNTVYLQMNSLKPEDTAVYYCAAKYDGSYVGLYWYSMNYWGQGTQVTVSS | low polyreactivity |
| QVQLVESGGGLVQAGGSLRLSCAASGSTFSRNAMGWSRQAPGKERELVAAISWRGGRTYYADSVKGRFTISRDNAKNTVYLQMNSLKPEDTAVYYCAAEHKYRYDYWGQGTQVTVSS | low polyreactivity |
| QVQLVESGGGLVQAGGSLRLSCAASGSTFSRNAMGWYRQAPGKERELVAAINYSGGITYYADSVKGRFTISRDNAKNTVYLQMNSLKPADTAVYYCAKRGIGDPGQHPLGFGYWGQGTQVTVSS | low polyreactivity |
| QVQLVESGGGLVQAGGSLRLSCAASGSTFSRYAMGWYRQAPGKERELVAAISSNGGRTYYADSVKGRFTISRDNAKNTVYLQMNSLKPEDTAVYYCAAVNYLTMDYWGQGTQVTVSS | high polyreactivity |

Reference: the nanobody polyreactivity screen of Harvey et al. (2022)
